The values that follow come from paper PMC12749841 (Nature Communications, 2025).

This experiment concerns the target importin β (human, UniProt Q14974 1-876). The experiment in a line: cryo-EM structure.

importin β, sequence (Q14974 whole entry): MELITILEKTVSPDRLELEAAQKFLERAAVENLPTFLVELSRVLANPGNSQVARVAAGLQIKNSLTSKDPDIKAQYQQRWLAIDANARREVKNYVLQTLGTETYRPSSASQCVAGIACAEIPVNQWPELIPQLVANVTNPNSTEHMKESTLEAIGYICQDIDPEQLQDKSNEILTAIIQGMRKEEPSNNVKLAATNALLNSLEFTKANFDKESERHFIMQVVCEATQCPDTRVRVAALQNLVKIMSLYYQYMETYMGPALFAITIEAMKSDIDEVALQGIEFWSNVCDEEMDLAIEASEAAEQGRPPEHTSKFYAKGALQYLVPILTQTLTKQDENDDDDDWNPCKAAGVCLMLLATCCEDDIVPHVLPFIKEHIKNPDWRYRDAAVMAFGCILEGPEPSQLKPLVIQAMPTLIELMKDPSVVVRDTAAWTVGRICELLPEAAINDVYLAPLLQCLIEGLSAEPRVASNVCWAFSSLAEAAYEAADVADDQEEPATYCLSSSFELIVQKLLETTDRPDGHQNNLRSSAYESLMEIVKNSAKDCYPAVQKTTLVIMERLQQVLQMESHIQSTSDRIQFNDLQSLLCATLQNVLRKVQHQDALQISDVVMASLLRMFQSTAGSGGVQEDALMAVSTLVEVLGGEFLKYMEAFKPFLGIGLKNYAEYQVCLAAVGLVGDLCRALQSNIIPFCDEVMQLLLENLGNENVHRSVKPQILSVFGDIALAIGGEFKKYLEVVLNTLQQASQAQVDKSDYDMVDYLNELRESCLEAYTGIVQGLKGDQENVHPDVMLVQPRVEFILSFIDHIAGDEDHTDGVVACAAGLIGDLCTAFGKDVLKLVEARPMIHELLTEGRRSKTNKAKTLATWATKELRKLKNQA

B1: importin α1 IBB domain (res 1–65) fused to 6xHis Maltose Binding Protein (domain or fragment)
chain: not shown
With B1, the binding result was “binds”.
